Blank lines part the entries; values can stand above or below the binder they belong to.
What was measured:
[1] = target: T1, TMR-labeled BiP protein (BiP-C41A/C420A/V429C/T462C labelled with tetramethylrhodamine) (human, UniProt P11021 19-654, C41A | C420A | V429C | T462C, tetramethylrhodamine (TMR, from 5-IATR) on both introduced cysteines (V429C, T462C)); test: other fluorescence titration; quenching of two TMR labels on BiP (called FRET by the paper); 300 nM TMR-labeled BiP, 2 mM ATP, buffer B (30 mM Tris-HCl pH 7.0, 100 mM KCl, 3 mM MgCl2, 3 mM CaCl2, 10% glycerol), room temperature, serial dilutions of ERdj3, one-site binding fit; settings: both partners purified
T1 construct: human BiP with C41A, C420A, V429C, T462C; ATP (2 mM) present in the ERdj3 experiments; also called TMR-labeled BiP FRET protein; source: E. coli BL21(DE3) Gold, purified, labelled with 5-IATR, HiTrap Q, monomer peak used; not shown: His6, N-terminal, cleaved; Smt3, N-terminal, cleaved

[2] = target: T2, TMR-labeled DnaK (DnaK FRET construct C15A/M404C/T437C labelled with tetramethylrhodamine) (E. coli, UniProt P0A6Y8 1-638, C15A | M404C | T437C, tetramethylrhodamine (TMR, from 5-IATR) on both introduced cysteines (M404C, T437C)); test: other fluorescence titration; quenching of two TMR labels on DnaK (called FRET by the paper); 30 nM TMR-labeled DnaK, 2 mM ATP, buffer C (30 mM Tris-HCl pH 7.5, 25 mM KCl, 3 mM MgCl2, 10% glycerol), room temperature, DnaJ added at indicated concentrations; settings: both partners purified
T2 construct: DnaK, an E. coli Hsp70, with C15A, M404C, T437C; ATP (2 mM) present in the DnaJ experiments; source: E. coli dnak deletion strain BB205 (plasmid pBB46), purified, labelled with 5-IATR, HiTrap Q, monomer peak used

T1 sequence (P11021 19-654 C41A/C420A/V429C/T462C): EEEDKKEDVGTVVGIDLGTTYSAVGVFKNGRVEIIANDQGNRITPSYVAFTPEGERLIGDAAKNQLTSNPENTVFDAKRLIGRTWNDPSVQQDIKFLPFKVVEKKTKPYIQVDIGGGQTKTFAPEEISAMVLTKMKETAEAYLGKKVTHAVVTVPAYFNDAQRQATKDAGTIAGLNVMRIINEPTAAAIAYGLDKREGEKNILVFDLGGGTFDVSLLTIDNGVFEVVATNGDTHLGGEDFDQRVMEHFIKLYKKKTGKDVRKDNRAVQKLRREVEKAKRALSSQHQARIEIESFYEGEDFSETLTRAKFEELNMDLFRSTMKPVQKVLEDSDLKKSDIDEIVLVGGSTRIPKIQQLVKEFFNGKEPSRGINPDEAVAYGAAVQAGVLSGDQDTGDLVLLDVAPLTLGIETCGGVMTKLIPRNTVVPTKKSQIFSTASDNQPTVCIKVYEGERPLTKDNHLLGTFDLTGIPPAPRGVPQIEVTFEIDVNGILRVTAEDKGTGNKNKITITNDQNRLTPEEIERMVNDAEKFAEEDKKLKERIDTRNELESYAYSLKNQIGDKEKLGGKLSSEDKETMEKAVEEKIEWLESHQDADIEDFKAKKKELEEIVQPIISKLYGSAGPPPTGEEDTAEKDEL

Kd [1]: 1.67 ± 0.11 µM
B1: ERdj3 (natural protein, UniProt Q9UBS4 23-358, looked up)
chain: GRDFYKILGVPRSASIKDIKKAYRKLALQLHPDRNPDDPQAQEKFQDLGAAYEVLSDSEKRKQYDTYGEEGLKDGHQSSHGDIFSHFFGDFGFMFGGTPRQQDRNIPRGSDIIVDLEVTLEEVYAGNFVEVVRNKPVARQAPGKRKCNCRQEMRTTQLGPGRFQMTQEVVCDECPNVKLVNEERTLEVEIEPGVRDGMEYPFIGEGEPHVDGEPGDLRFRIKVVKHPIFERRGDDLYTNVTISLVESLVGFEMDITHLDGHKVHISRDKITRPGAKLWKKGEGLPNFDNNNIKGSLIITFDVDFPKEQLTEEAREGIKQLLKQGSVQKVYNGLQGY
notes: ERdj3, an Hsp40 co-chaperone of BiP in the ER; plasmid a gift of Dr. Linda Hendershot; also called Hsp40 ERdj3; source: M15 E. coli, purified (HisTrap, 2 M urea in the lysis buffer, dialysis)

fold change of the dissociation constant against ERdj3-BiP [2]: ~10 times lower
B2: DnaJ (natural protein, UniProt P08622 1-376, looked up)
chain: MAKQDYYEILGVSKTAEEREIRKAYKRLAMKYHPDRNQGDKEAEAKFKEIKEAYEVLTDSQKRAAYDQYGHAAFEQGGMGGGGFGGGADFSDIFGDVFGDIFGGGRGRQRAARGADLRYNMELTLEEAVRGVTKEIRIPTLEECDVCHGSGAKPGTQPQTCPTCHGSGQVQMRQGFFAVQQTCPHCQGRGTLIKDPCNKCHGHGRVERSKTLSVKIPAGVDTGDRIRLAGEGEAGEHGAPAGDLYVQVQVKQHPIFEREGNNLYCEVPINFAMAALGGEIEVPTLDGRVKLKVPGETQTGKLFRMRGKGVKSVRGGAQGDLLCRVVVETPVGLNERQKQLLQELQESFGGPTGEHNSPRSKSFFDGVKKFFDDLTR
notes: DnaJ, the Hsp40 partner of DnaK; also called Hsp40 co-chaperone DnaJ; source: E. coli BL21(DE3) Gold, purified (HisTrap, Ulp1, HisTrap, Superdex 200); not shown: Smt3, N-terminal, cleaved; His6 (from the vector pSMT3), N-terminal, cleaved
